The test has as its target HRgpA-6H (Porphyromonas gingivalis) (UniProt P28784). Description: ELISA on coated HRgpA-6H. A general note: ELISA stands for enzyme-linked immunosorbent assay.

Where “and” joins values, the source holds several entries; their conditions need not be identical. Equal values may be shown once.

UniProt P28784, sequence (P28784 228-991 limits assumed): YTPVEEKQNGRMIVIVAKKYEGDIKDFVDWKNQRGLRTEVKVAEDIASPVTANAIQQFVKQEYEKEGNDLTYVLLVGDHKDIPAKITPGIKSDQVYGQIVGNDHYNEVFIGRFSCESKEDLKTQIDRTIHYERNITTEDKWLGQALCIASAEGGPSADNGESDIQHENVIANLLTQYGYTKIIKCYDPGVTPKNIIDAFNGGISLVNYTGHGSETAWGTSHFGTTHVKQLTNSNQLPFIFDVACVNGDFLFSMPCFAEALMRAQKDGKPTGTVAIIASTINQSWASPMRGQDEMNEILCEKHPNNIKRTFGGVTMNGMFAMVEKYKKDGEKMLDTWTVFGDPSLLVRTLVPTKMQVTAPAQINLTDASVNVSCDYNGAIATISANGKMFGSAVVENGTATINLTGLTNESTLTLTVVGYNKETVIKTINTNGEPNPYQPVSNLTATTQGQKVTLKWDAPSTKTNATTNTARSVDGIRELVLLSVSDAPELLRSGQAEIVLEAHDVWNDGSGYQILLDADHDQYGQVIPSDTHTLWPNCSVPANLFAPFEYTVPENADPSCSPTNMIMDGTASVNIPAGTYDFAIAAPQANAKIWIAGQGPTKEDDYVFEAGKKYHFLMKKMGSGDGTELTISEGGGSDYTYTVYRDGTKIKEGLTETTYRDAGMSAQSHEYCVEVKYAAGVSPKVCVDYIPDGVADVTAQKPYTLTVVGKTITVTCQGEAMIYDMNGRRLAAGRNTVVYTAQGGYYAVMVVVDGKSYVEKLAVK

B1: KB001 mouse Fab FASEBA VH I31V (Fab, V domains shown)
VH: EVQLKQSGPGLVAPSQSLSITCTVSGFSLSVYSVHWVRQPPGKGLEWLGMIWGGGSSDYNSALKSRLSISKDNSKSQVFLKMNSLQTDDTAMYYCARNGNFYAMDYWGQGTSVTVSS
VL: QIVLTQSPAIMSASLGERVTMTCTASSSVSSSFLHWYQQKPGSSPQLWIYSTSNLASGVPARFSGSGSGTSYSLTISSMEAEDAATYYCHQYHHSPYIYTFGGGTKLEIK
Take B1: the OD450nm is 0.537 and 0.521; the Ratio OD(Variant)/OD(WT) was 1.06 and 1.03.

B2: KB001 mouse Fab FASEBA VH N100E (Fab, V domains shown)
VH: EVQLKQSGPGLVAPSQSLSITCTVSGFSLSIYSVHWVRQPPGKGLEWLGMIWGGGSSDYNSALKSRLSISKDNSKSQVFLKMNSLQTDDTAMYYCARNGEFYAMDYWGQGTSVTVSS
VL: QIVLTQSPAIMSASLGERVTMTCTASSSVSSSFLHWYQQKPGSSPQLWIYSTSNLASGVPARFSGSGSGTSYSLTISSMEAEDAATYYCHQYHHSPYIYTFGGGTKLEIK
For the molecule B2, the OD450nm was determined as 0.886 and the Ratio OD(Variant)/OD(WT) came to 1.05.

B3: KB001 mouse Fab FASEBA VH S65T (Fab, V domains shown)
VH: EVQLKQSGPGLVAPSQSLSITCTVSGFSLSIYSVHWVRQPPGKGLEWLGMIWGGGSSDYNSALKTRLSISKDNSKSQVFLKMNSLQTDDTAMYYCARNGNFYAMDYWGQGTSVTVSS
VL: QIVLTQSPAIMSASLGERVTMTCTASSSVSSSFLHWYQQKPGSSPQLWIYSTSNLASGVPARFSGSGSGTSYSLTISSMEAEDAATYYCHQYHHSPYIYTFGGGTKLEIK
On to B3, for which the OD450nm was 0.883 and the Ratio OD(Variant)/OD(WT) is 1.07.

B4: KB001 mouse Fab FASEBA VH K64R (Fab, V domains shown)
VH: EVQLKQSGPGLVAPSQSLSITCTVSGFSLSIYSVHWVRQPPGKGLEWLGMIWGGGSSDYNSALRSRLSISKDNSKSQVFLKMNSLQTDDTAMYYCARNGNFYAMDYWGQGTSVTVSS
VL: QIVLTQSPAIMSASLGERVTMTCTASSSVSSSFLHWYQQKPGSSPQLWIYSTSNLASGVPARFSGSGSGTSYSLTISSMEAEDAATYYCHQYHHSPYIYTFGGGTKLEIK
Take B4: the OD450nm stood at 0.87 and the Ratio OD(Variant)/OD(WT) amounted to 1.05.

B5: KB001 mouse Fab FASEBA VH S65V (Fab, V domains shown)
VH: EVQLKQSGPGLVAPSQSLSITCTVSGFSLSIYSVHWVRQPPGKGLEWLGMIWGGGSSDYNSALKVRLSISKDNSKSQVFLKMNSLQTDDTAMYYCARNGNFYAMDYWGQGTSVTVSS
VL: QIVLTQSPAIMSASLGERVTMTCTASSSVSSSFLHWYQQKPGSSPQLWIYSTSNLASGVPARFSGSGSGTSYSLTISSMEAEDAATYYCHQYHHSPYIYTFGGGTKLEIK
B5: the OD450nm was determined as 0.867 and the Ratio OD(Variant)/OD(WT) came to 1.05.

B6: KB001 mouse Fab FASEBA VH K64A (Fab, V domains shown)
VH: EVQLKQSGPGLVAPSQSLSITCTVSGFSLSIYSVHWVRQPPGKGLEWLGMIWGGGSSDYNSALASRLSISKDNSKSQVFLKMNSLQTDDTAMYYCARNGNFYAMDYWGQGTSVTVSS
VL: QIVLTQSPAIMSASLGERVTMTCTASSSVSSSFLHWYQQKPGSSPQLWIYSTSNLASGVPARFSGSGSGTSYSLTISSMEAEDAATYYCHQYHHSPYIYTFGGGTKLEIK
Take B6: the OD450nm stood at 0.89 and the Ratio OD(Variant)/OD(WT) is 1.08.

B7: KB001 mouse Fab FASEBA VH S65D (Fab, V domains shown)
VH: EVQLKQSGPGLVAPSQSLSITCTVSGFSLSIYSVHWVRQPPGKGLEWLGMIWGGGSSDYNSALKDRLSISKDNSKSQVFLKMNSLQTDDTAMYYCARNGNFYAMDYWGQGTSVTVSS
VL: QIVLTQSPAIMSASLGERVTMTCTASSSVSSSFLHWYQQKPGSSPQLWIYSTSNLASGVPARFSGSGSGTSYSLTISSMEAEDAATYYCHQYHHSPYIYTFGGGTKLEIK
As for B7, the OD450nm was 0.866 and 0.897; the Ratio OD(Variant)/OD(WT) is 1.05 and 1.08.

B8: KB001 mouse Fab FASEBA VH Y59V (Fab, V domains shown)
VH: EVQLKQSGPGLVAPSQSLSITCTVSGFSLSIYSVHWVRQPPGKGLEWLGMIWGGGSSDVNSALKSRLSISKDNSKSQVFLKMNSLQTDDTAMYYCARNGNFYAMDYWGQGTSVTVSS
VL: QIVLTQSPAIMSASLGERVTMTCTASSSVSSSFLHWYQQKPGSSPQLWIYSTSNLASGVPARFSGSGSGTSYSLTISSMEAEDAATYYCHQYHHSPYIYTFGGGTKLEIK
On to B8, for which the OD450nm was 0.83 and 0.79; the Ratio OD(Variant)/OD(WT) is 1.05 and 0.999.

B9: KB001 mouse Fab FASEBA VH G99Y (Fab, V domains shown)
VH: EVQLKQSGPGLVAPSQSLSITCTVSGFSLSIYSVHWVRQPPGKGLEWLGMIWGGGSSDYNSALKSRLSISKDNSKSQVFLKMNSLQTDDTAMYYCARNYNFYAMDYWGQGTSVTVSS
VL: QIVLTQSPAIMSASLGERVTMTCTASSSVSSSFLHWYQQKPGSSPQLWIYSTSNLASGVPARFSGSGSGTSYSLTISSMEAEDAATYYCHQYHHSPYIYTFGGGTKLEIK
B9: the OD450nm worked out at 0.835 and the Ratio OD(Variant)/OD(WT) is 1.05.

B10: KB001 mouse Fab FASEBA VH S61N (Fab, V domains shown)
VH: EVQLKQSGPGLVAPSQSLSITCTVSGFSLSIYSVHWVRQPPGKGLEWLGMIWGGGSSDYNNALKSRLSISKDNSKSQVFLKMNSLQTDDTAMYYCARNGNFYAMDYWGQGTSVTVSS
VL: QIVLTQSPAIMSASLGERVTMTCTASSSVSSSFLHWYQQKPGSSPQLWIYSTSNLASGVPARFSGSGSGTSYSLTISSMEAEDAATYYCHQYHHSPYIYTFGGGTKLEIK
Regarding B10, the OD450nm came out at 0.537 and the Ratio OD(Variant)/OD(WT) came out at 1.09.

B11: KB001 mouse Fab FASEBA VH I31M (Fab, V domains shown)
VH: EVQLKQSGPGLVAPSQSLSITCTVSGFSLSMYSVHWVRQPPGKGLEWLGMIWGGGSSDYNSALKSRLSISKDNSKSQVFLKMNSLQTDDTAMYYCARNGNFYAMDYWGQGTSVTVSS
VL: QIVLTQSPAIMSASLGERVTMTCTASSSVSSSFLHWYQQKPGSSPQLWIYSTSNLASGVPARFSGSGSGTSYSLTISSMEAEDAATYYCHQYHHSPYIYTFGGGTKLEIK
For the molecule B11, the OD450nm was 0.522 and the Ratio OD(Variant)/OD(WT) turned out to be 1.03.

B12: KB001 mouse Fab FASEBA VH S57Q (Fab, V domains shown)
VH: EVQLKQSGPGLVAPSQSLSITCTVSGFSLSIYSVHWVRQPPGKGLEWLGMIWGGGSQDYNSALKSRLSISKDNSKSQVFLKMNSLQTDDTAMYYCARNGNFYAMDYWGQGTSVTVSS
VL: QIVLTQSPAIMSASLGERVTMTCTASSSVSSSFLHWYQQKPGSSPQLWIYSTSNLASGVPARFSGSGSGTSYSLTISSMEAEDAATYYCHQYHHSPYIYTFGGGTKLEIK
Consider B12, for which the OD450nm is 0.915 and 0.863 and 0.836; the Ratio OD(Variant)/OD(WT) was 1.04 and 0.981 and 0.951.

B13: KB001 mouse Fab FASEBA VH S57V (Fab, V domains shown)
VH: EVQLKQSGPGLVAPSQSLSITCTVSGFSLSIYSVHWVRQPPGKGLEWLGMIWGGGSVDYNSALKSRLSISKDNSKSQVFLKMNSLQTDDTAMYYCARNGNFYAMDYWGQGTSVTVSS
VL: QIVLTQSPAIMSASLGERVTMTCTASSSVSSSFLHWYQQKPGSSPQLWIYSTSNLASGVPARFSGSGSGTSYSLTISSMEAEDAATYYCHQYHHSPYIYTFGGGTKLEIK
Turning to B13, the OD450nm is 0.911 and 0.869; the Ratio OD(Variant)/OD(WT) is 1.04 and 0.988.

B14: KB001 mouse Fab FASEBA VH V34I (Fab, V domains shown)
VH: EVQLKQSGPGLVAPSQSLSITCTVSGFSLSIYSIHWVRQPPGKGLEWLGMIWGGGSSDYNSALKSRLSISKDNSKSQVFLKMNSLQTDDTAMYYCARNGNFYAMDYWGQGTSVTVSS
VL: QIVLTQSPAIMSASLGERVTMTCTASSSVSSSFLHWYQQKPGSSPQLWIYSTSNLASGVPARFSGSGSGTSYSLTISSMEAEDAATYYCHQYHHSPYIYTFGGGTKLEIK
Consider B14, for which the OD450nm was 0.891 and 0.868 and 0.866; the Ratio OD(Variant)/OD(WT) was 1.08 and 1.05 (2×).

B15: KB001 mouse Fab FASEBA VH S57A (Fab, V domains shown)
VH: EVQLKQSGPGLVAPSQSLSITCTVSGFSLSIYSVHWVRQPPGKGLEWLGMIWGGGSADYNSALKSRLSISKDNSKSQVFLKMNSLQTDDTAMYYCARNGNFYAMDYWGQGTSVTVSS
VL: QIVLTQSPAIMSASLGERVTMTCTASSSVSSSFLHWYQQKPGSSPQLWIYSTSNLASGVPARFSGSGSGTSYSLTISSMEAEDAATYYCHQYHHSPYIYTFGGGTKLEIK
B15: the OD450nm amounted to 0.922 and the Ratio OD(Variant)/OD(WT) stood at 1.05.

B16: KB001 mouse Fab FASEBA VH A103S (Fab, V domains shown)
VH: EVQLKQSGPGLVAPSQSLSITCTVSGFSLSIYSVHWVRQPPGKGLEWLGMIWGGGSSDYNSALKSRLSISKDNSKSQVFLKMNSLQTDDTAMYYCARNGNFYSMDYWGQGTSVTVSS
VL: QIVLTQSPAIMSASLGERVTMTCTASSSVSSSFLHWYQQKPGSSPQLWIYSTSNLASGVPARFSGSGSGTSYSLTISSMEAEDAATYYCHQYHHSPYIYTFGGGTKLEIK
As for B16, the OD450nm is 0.909 and the Ratio OD(Variant)/OD(WT) was found to be 1.05.

B17: KB001 mouse Fab FASEBA VH S56A (Fab, V domains shown)
VH: EVQLKQSGPGLVAPSQSLSITCTVSGFSLSIYSVHWVRQPPGKGLEWLGMIWGGGASDYNSALKSRLSISKDNSKSQVFLKMNSLQTDDTAMYYCARNGNFYAMDYWGQGTSVTVSS
VL: QIVLTQSPAIMSASLGERVTMTCTASSSVSSSFLHWYQQKPGSSPQLWIYSTSNLASGVPARFSGSGSGTSYSLTISSMEAEDAATYYCHQYHHSPYIYTFGGGTKLEIK
In the case of B17, the OD450nm is 0.891 and 0.86 and 0.82; the Ratio OD(Variant)/OD(WT) is 1.01 and 0.978 and 0.932.

B18: KB001 mouse Fab FASEBA VH G99S (Fab, V domains shown)
VH: EVQLKQSGPGLVAPSQSLSITCTVSGFSLSIYSVHWVRQPPGKGLEWLGMIWGGGSSDYNSALKSRLSISKDNSKSQVFLKMNSLQTDDTAMYYCARNSNFYAMDYWGQGTSVTVSS
VL: QIVLTQSPAIMSASLGERVTMTCTASSSVSSSFLHWYQQKPGSSPQLWIYSTSNLASGVPARFSGSGSGTSYSLTISSMEAEDAATYYCHQYHHSPYIYTFGGGTKLEIK
Consider B18, for which the OD450nm is 0.809 and the Ratio OD(Variant)/OD(WT) is 1.01.

B19: KB001 mouse Fab FASEBA VH S61T (Fab, V domains shown)
VH: EVQLKQSGPGLVAPSQSLSITCTVSGFSLSIYSVHWVRQPPGKGLEWLGMIWGGGSSDYNTALKSRLSISKDNSKSQVFLKMNSLQTDDTAMYYCARNGNFYAMDYWGQGTSVTVSS
VL: QIVLTQSPAIMSASLGERVTMTCTASSSVSSSFLHWYQQKPGSSPQLWIYSTSNLASGVPARFSGSGSGTSYSLTISSMEAEDAATYYCHQYHHSPYIYTFGGGTKLEIK
Regarding B19, the OD450nm was 0.543 and 0.447; the Ratio OD(Variant)/OD(WT) is 1.1 and 0.906.

Source of the values: patent US20230365662A1.
